The values below come from patent publication US20110189729.

This data set concerns the target lambda integrase Int-h/218 h/218 mutant (substitutions not given) (Bacteriophage lambda) (UniProt P03700). Put plainly: cell_activity. The conditions noted are these: CHO-DG44.

“GCTGTTACAGGTCACTAATACCATCTATGTAGTTGATTCATATTGTCTGCATATCTTGTGTTTTACAGTATTATCTAGTCTGTTTTTTATCCAAAATCTAATTTATTATATTGATATTTATATCATTTTACGTTTCTCGTTCAGCTTTTTTATACTAAGTTGGCATTATAAAAAAGCATTGCTTATCAATTTGTTGCAACGAACAGGTCACTATCAGTCAAAATATAATCATTATTTGATTTC / GAAATCAAATAATGATTATATTTTGACTGATAGTGACCTGTTCGTTGCAACAAATTGATAAGCAATGCTTTTTTATAATGCCAACTTAGTATAAAAAAGCTGAACGAGAAACGTAAAATGATATAAATATCAATATAATAAATTAGATTTTGGATAAAAAACAGACTAGATAATACTGTAAAACACAAGATATGCAGACAATATGAATCAACTACATAGATGGTATTAGTGACCTGTAACAGC / GCTGTTACAGGTCACTAATACCATCTATGTAGTTGATTCATATTGTCTGCATATCTTGTGTTTTACAGTATTATCTAGTCTGTTTTTTATCCAAAATCTAATTTATTATATTGATATTTATATCATTTTACGTTTCTCGTTCAGCTTTTTTATACTAAGTTGGCATTATAAAAAAGCATTGCTTATCAATTTGTTGCAACGAACAGGTCACTATCAGTCAAAATATAATCATTATTTGATTTC / GAAATCAAATAATGATTATATTTTGACTGATAGTGACCTGTTCGTTGCAACAAATTGATAAGCAATGCTTTTTTATAATGCCAACTTAGTATAAAAAAGCTGAACGAGAAACGTAAAATGATATAAATATCAATATAATAAATTAGATTTTGGATAAAAAACAGACTAGATAATACTGTAAAACACAAGATATGCAGACAATATGAATCAACTACATAGATGGTATTAGTGACCTGTAACAGC [attP.a ; attP.a]” returned an activity (% fluorescent cells) (attP.a x attP.a, no IHF plasmid) of 1.9.

Under “attL.a x attR.b, with IHF and XIS, PCR verified”, “CTGCTTTTTTATACTAAGTTGGCATTATAAAAAAGCATTGCTTATCAATTTGTTGCAACGAACAGGTCACTATCAGTCAAAATATAATCATTATTTGATTTC / GAAATCAAATAATGATTATATTTTGACTGATAGTGACCTGTTCGTTGCAACAAATTGATAAGCAATGCTTTTTTATAATGCCAACTTAGTATAAAAAAGCAG / GCTGTTACAGGTCACTAATACCATCTACGTAGTTGATTCATATTGTCTGCATATCTTGTGTTTTACAGTATTATCTAGTCTGTTTTTTATCCAAAATCTAATTTATTATATTGATATTTATATCATTTTACGTTTCTCGTTCAGCTTTTTTATACTAACTTG / CAAGTTAGTATAAAAAAGCTGAACGAGAAACGTAAAATGATATAAATATCAATATAATAAATTAGATTTTGGATAAAAAACAGACTAGATAATACTGTAAAACACAAGATATGCAGACAATATGAATCAACTACGTAGATGGTATTAGTGACCTGTAACAGC [attL.a ; attR.b]” displayed an activity (% fluorescent cells) of 1.2.

For “TCTGTTACAGGTCACTAATACCATCTAAGTAGTTGATTCATAGTGACTGCATATGTTGTGTTTTACAGTATTATGTAGTCTGTTTTTTATGCAAAATCTAATTTAATATATTGATATTTATATCATTTTACGTTTCTCGTTCAGCTTTTTTATACTAAGTTGGCATTATAAAAAAGCATTGCTTATCAATTTGTTGCAACGAACAGGTCACTATCAGTCAAAATAAAATCATTATTTGATTTC / GAAATCAAATAATGATTTTATTTTGACTGATAGTGACCTGTTCGTTGCAACAAATTGATAAGCAATGCTTTTTTATAATGCCAACTTAGTATAAAAAAGCTGAACGAGAAACGTAAAATGATATAAATATCAATATATTAAATTAGATTTTGCATAAAAAACAGACTACATAATACTGTAAAACACAACATATGCAGTCACTATGAATCAACTACTTAGATGGTATTAGTGACCTGTAACAGA / GCTGTTACAGGTCACTAATACCATCTACGTAGTTGATTCATATTGTCTGCATATCTTGTGTTTTACAGTATTATCTAGTCTGTTTTTTATCCAAAATCTAATTTATTATATTGATATTTATATCATTTTACGTTTCTCGTTCAGCTTTTTTATACTAACTTG / CAAGTTAGTATAAAAAAGCTGAACGAGAAACGTAAAATGATATAAATATCAATATAATAAATTAGATTTTGGATAAAAAACAGACTAGATAATACTGTAAAACACAAGATATGCAGACAATATGAATCAACTACGTAGATGGTATTAGTGACCTGTAACAGC [attP ; attR.b]”, where the note is “attP x attR.b, with IHF and XIS”, the activity (% fluorescent cells) is 1.1.

In turn, “GCTGTTACAGGTCACTAATACCATCTACGTAGTTGATTCATATTGTCTGCATATCTTGTGTTTTACAGTATTATCTAGTCTGTTTTTTATCCAAAATCTAATTTATTATATTGATATTTATATCATTTTACGTTTCTCGTTCAGCTTTTTTATACTAAGTTGGCATTATAAAAAAGCATTGCTTATCAATTTGTTGCAACGAACAGGTCACTATCAGTCAAAATATAATCATTATTTGATTTC / GAAATCAAATAATGATTATATTTTGACTGATAGTGACCTGTTCGTTGCAACAAATTGATAAGCAATGCTTTTTTATAATGCCAACTTAGTATAAAAAAGCTGAACGAGAAACGTAAAATGATATAAATATCAATATAATAAATTAGATTTTGGATAAAAAACAGACTAGATAATACTGTAAAACACAAGATATGCAGACAATATGAATCAACTACGTAGATGGTATTAGTGACCTGTAACAGC / GCTGTTACAGGTCACTAATACCATCTACGTAGTTGATTCATATTGTCTGCATATCTTGTGTTTTACAGTATTATCTAGTCTGTTTTTTATCCAAAATCTAATTTATTATATTGATATTTATATCATTTTACGTTTCTCGTTCAGCTTTTTTATACTAAGTTGGCATTATAAAAAAGCATTGCTTATCAATTTGTTGCAACGAACAGGTCACTATCAGTCAAAATATAATCATTATTTGATTTC / GAAATCAAATAATGATTATATTTTGACTGATAGTGACCTGTTCGTTGCAACAAATTGATAAGCAATGCTTTTTTATAATGCCAACTTAGTATAAAAAAGCTGAACGAGAAACGTAAAATGATATAAATATCAATATAATAAATTAGATTTTGGATAAAAAACAGACTAGATAATACTGTAAAACACAAGATATGCAGACAATATGAATCAACTACGTAGATGGTATTAGTGACCTGTAACAGC [attP.b ; attP.b]” had an activity (% fluorescent cells) (attP.b x attP.b, with IHF, 0.4% without IHF plasmid, 2% in Example 2 cotransfection without IHF (p190)) of 1.5.

“CTGCTTTTTTATACTAAGTTGGCATTATAAAAAAGCATTGCTTATCAATTTGTTGCAACGAACAGGTCACTATCAGTCAAAATAAAATCATTATTTGATTTC / GAAATCAAATAATGATTTTATTTTGACTGATAGTGACCTGTTCGTTGCAACAAATTGATAAGCAATGCTTTTTTATAATGCCAACTTAGTATAAAAAAGCAG / TCTGTTACAGGTCACTAATACCATCTAAGTAGTTGATTCATAGTGACTGCATATGTTGTGTTTTACAGTATTATGTAGTCTGTTTTTTATGCAAAATCTAATTTAATATATTGATATTTATATCATTTTACGTTTCTCGTTCAGCTTTTTTATACTAACTTG / CAAGTTAGTATAAAAAAGCTGAACGAGAAACGTAAAATGATATAAATATCAATATATTAAATTAGATTTTGCATAAAAAACAGACTACATAATACTGTAAAACACAACATATGCAGTCACTATGAATCAACTACTTAGATGGTATTAGTGACCTGTAACAGA [attL ; attR]”: the activity (% fluorescent cells) (attL x attR, with IHF and XIS, PCR verified) was 3.2.

As for “CTGCTTTTTTATACTAAGTTGGCATTATAAAAAAGCATTGCTTATCAATTTGTTGCAACGAACAGGTCACTATCAGTCAAAATAAAATCATTATTTGATTTC / GAAATCAAATAATGATTTTATTTTGACTGATAGTGACCTGTTCGTTGCAACAAATTGATAAGCAATGCTTTTTTATAATGCCAACTTAGTATAAAAAAGCAG / CTGCTTTTTTATACTAACTTG / CAAGTTAGTATAAAAAAGCAG [attL ; attB]”, the activity (% fluorescent cells) (attL x attB, with IHF and XIS, PCR verified) came to 2.3.

Take “CTGCTTTTTTATACTAAGTTGGCATTATAAAAAAGCATTGCTTATCAATTTGTTGCAACGAACAGGTCACTATCAGTCAAAATATAATCATTATTTGATTTC / GAAATCAAATAATGATTATATTTTGACTGATAGTGACCTGTTCGTTGCAACAAATTGATAAGCAATGCTTTTTTATAATGCCAACTTAGTATAAAAAAGCAG / CTGCTTTTTTATACTAACTTG / CAAGTTAGTATAAAAAAGCAG [attL.a ; attB]”: the activity (% fluorescent cells) (attL.a x attB, with IHF and XIS, PCR verified) amounted to 2.

For “TCTGTTACAGGTCACTAATACCATCTAAGTAGTTGATTCATAGTGACTGCATATGTTGTGTTTTACAGTATTATGTAGTCTGTTTTTTATGCAAAATCTAATTTAATATATTGATATTTATATCATTTTACGTTTCTCGTTCAGCTTTTTTATACTAAGTTGGCATTATAAAAAAGCATTGCTTATCAATTTGTTGCAACGAACAGGTCACTATCAGTCAAAATAAAATCATTATTTGATTTC / GAAATCAAATAATGATTTTATTTTGACTGATAGTGACCTGTTCGTTGCAACAAATTGATAAGCAATGCTTTTTTATAATGCCAACTTAGTATAAAAAAGCTGAACGAGAAACGTAAAATGATATAAATATCAATATATTAAATTAGATTTTGCATAAAAAACAGACTACATAATACTGTAAAACACAACATATGCAGTCACTATGAATCAACTACTTAGATGGTATTAGTGACCTGTAACAGA / TCTGTTACAGGTCACTAATACCATCTAAGTAGTTGATTCATAGTGACTGCATATGTTGTGTTTTACAGTATTATGTAGTCTGTTTTTTATGCAAAATCTAATTTAATATATTGATATTTATATCATTTTACGTTTCTCGTTCAGCTTTTTTATACTAAGTTGGCATTATAAAAAAGCATTGCTTATCAATTTGTTGCAACGAACAGGTCACTATCAGTCAAAATAAAATCATTATTTGATTTC / GAAATCAAATAATGATTTTATTTTGACTGATAGTGACCTGTTCGTTGCAACAAATTGATAAGCAATGCTTTTTTATAATGCCAACTTAGTATAAAAAAGCTGAACGAGAAACGTAAAATGATATAAATATCAATATATTAAATTAGATTTTGCATAAAAAACAGACTACATAATACTGTAAAACACAACATATGCAGTCACTATGAATCAACTACTTAGATGGTATTAGTGACCTGTAACAGA [attP ; attP]”, the activity (% fluorescent cells) (attP x attP, no IHF plasmid) was determined as 1.9.
